Assay results: publication PMC8809517, “Cofactor-independent RNA editing by a synthetic S-type PPR protein”
Changes are numbered by the printed parent chain.

T1: GFP-9S library array, motif 4 ND N98A (synthetic construct, N98A)
T1 chain: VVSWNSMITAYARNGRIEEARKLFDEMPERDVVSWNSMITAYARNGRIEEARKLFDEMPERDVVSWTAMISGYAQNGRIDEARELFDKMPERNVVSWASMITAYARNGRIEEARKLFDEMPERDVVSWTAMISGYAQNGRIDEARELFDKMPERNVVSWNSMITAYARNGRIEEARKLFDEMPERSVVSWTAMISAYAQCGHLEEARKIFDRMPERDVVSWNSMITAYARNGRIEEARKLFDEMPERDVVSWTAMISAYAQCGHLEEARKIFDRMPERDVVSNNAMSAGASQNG

T2: GFP-9S library array, motif 4 ND N98E;D124T (synthetic construct, N98E;D124T)
T2 chain: T1 chain with A98E, D124T

T3: GFP-9S library array, motif 4 ND N98S;D124R (synthetic construct, N98S;D124R)
T3 chain: T1 chain with A98S, D124R

T4: GFP-9S library array, motif 4 ND N98I;D124T (synthetic construct, N98I;D124T)
T4 chain: T1 chain with A98I, D124T

T5: GFP-9S library array, motif 4 ND N98G;D124N (synthetic construct, N98G;D124N)
T5 chain: T1 chain with A98G, D124N


Experiments:
Experiment in all cases: high-throughput RNA pulldown from lysate on Ni-NTA beads; HRP: 50 mM Tris pH 8, 150 mM NaCl, 1 mM beta-mercaptoethanol, 50 ug/ml BSA, 3 ug/ml yeast RNA, 0.5% heparin; ITC and FP: Tris pH 8, 200 mM KCl, 5% glycerol; MST: 50 mM Tris pH 8, 200 mM NaCl, 1 mM DTT, BSA, heparin, 0.05% Tween 20
Settings in all cases: tags: N-terminal His-eGFP
[1] = target: T1, GFP-9S library array, motif 4 ND N98A
[2] = target: T2, GFP-9S library array, motif 4 ND …
[3] = target: T3, GFP-9S library array, motif 4 ND …
[4] = target: T4, GFP-9S library array, motif 4 ND …
[5] = target: T5, GFP-9S library array, motif 4 ND …

Binder	Kd ([1]; label: 5' Cy5) [nM]	Kd ([2]; label: 5' Cy5) [nM]	Kd ([3]; label: 5' Cy5) [nM]	Kd ([4]; label: 5' Cy5) [nM]	Kd ([5]; label: 5' Cy5) [nM]	Kd ([1]; label: 5' IRDye 800CW) [nM]	Kd ([2]; label: 5' IRDye 800CW) [nM]	Kd ([3]; label: 5' IRDye 800CW) [nM]	Kd ([4]; label: 5' IRDye 800CW) [nM]	Kd ([5]; label: 5' IRDye 800CW) [nM]
AUUAGACGUGA (ssRNA) [Cy5-rpoA-G]	156	123	97.8	145	276					
AUUAUACGUGA (ssRNA) [IR-rpoA-U]						50.8	476	109	59.1	82.7
AUUACACGUGA (ssRNA) [Cy5-rpoA]	194	130	87.7	141	155					
AUUAAACGUGA (ssRNA) [IR-rpoA-A]						223	339	63.5	158	41.2
